Test results from US11976099B2, “Compositions and methods for treatment of bone associated diseases” (THE NATIONAL INSTITUTE FOR BIOTECHNOLOGY IN THE NEGEV LTD., priority 2016, dated 2024).

Test system: murine bone marrow derived monocytes (BMMs) differentiating to osteoclasts
Experiment: Osteoclast differentiation assay of murine BMMs (TRAP staining)
Format: cell-based, mouse
Details: for effect on osteoclast differentiation/formation: Example 9, FIG. 13, varying concentrations, five days; for number of osteoclasts and number of nuclei / osteoclast formation: Example 14; for osteoclast formation: 50, 1000 and 5000 nM with M-CSFWT and RANKL
Procedure: Primary cells differentiation assay—Murine primary cells were obtained as described in the murine primary cells section. Cells were washed with PBS and detached using a cell scraper, and 20,000 cells were plated in each well of a 96-well plate. Osteoclast differentiation was induced by culturing the cells in α-MEM containing 10% of fetal bovine serum (FBS), penicillin and streptomycin, […] M-CSF and 20 ng/ul RANKL (R&D Systems, USA). To determine the influence of the M-CSFRGD variants and the M-CSFM on the osteoclasts, the proteins were added to the differentiation medium (with M-CSF and RANKL) in three different concentrations (50 nM, 1 μM and 5 μM). After 72-96 h, once the cells had differentiated fully, they were fixated with 4% paraformaldehyde and stained using the tartrate-resistant acid phosphatase (TRAP) staining kit (Sigma-Aldrich, USA) according to manufacturer's protocol. As a positive control, PBS was used instead of the inhibitors, and negative controls comprised cells incubated in differentiation medium without RANKL and inhibitors. […] Cells in each image were counted in a double-blind manner and the number of nuclei in the osteoclasts and the total osteoclast surface area were determined using ImageJ software. Three repeats were performed for every condition, and each repeat was normalized to the positive control values.
Differentiation assay—BMMs and CD14+ cells were obtained and grown as described above. The plates containing the monocytes were washed with PBS; the cells were detached using a cell scraper for BMMs or Accutase (Biological industries, Israel) for CD14^+; and 2×10^4 BMMs or 1×10^4 CD14^+ cells were transferred to each well in a 96-well plate. Osteoclast differentiation was induced as described in the ‘phosphorylation assay’ section. To determine the influence of M-CSFC31S and the M-CSFC31S,M27R on osteoclast differentiation, the proteins were added to the differentiation medium (with M-CSF and RANKL) in different concentrations (50 nM, 1 μM and 5 μM for BMMs and 50 nM, 250 nM and 1 μM for CD14^+). To determine the influence of human M-CSFWT on the differentiation, it was added to the cells in different concentrations (50 nM 1 μM and 5 μM) without adding murine M-CSFWT. Once the cells were fully differentiated, they were fixed with 4% paraformaldehyde and stained using the tartrate-resistant acid phosphatase (TRAP) staining kit (Sigma-Aldrich, USA) according to the manufacturer's protocol. As the positive control, cells were incubated with M-CSF and RANKL without inhibitors, and the negative control was comprised of cells that were incubated in differentiation medium without RANKL. […] Cells in each image were counted in a double-blind manner, and the number of nuclei in the osteoclasts was determined using ImageJ software. For the positive control of BMMs, an average of 28.33 osteoclasts and 135 nuclei per well were counted. For CD14^+ positive control, the average numbers of osteoclasts and nuclei were 14.5 and 75, respectively, per well. The results for each parameter were normalized to the positive control values.
Murine bone marrow monocytes were purified from the bone marrow of eight- to twelve-week-old mice and were seeded for osteoclast differentiation in the presence of recombinant M-CSF and RANKL for 72-96 h. […] At the end of the differentiation period, osteoclasts were fixed and stained for Tartrate resistant acid phosphatase activity (TRAP). Osteoclast differentiation and spreading were evaluated in terms of three parameters: number of osteoclasts, number of nuclei in osteoclasts and osteoclast surface area.
The positive control contains a differentiation medium with both M-CSF WT and RANKL. The negative control contains only […], which keeps the cells alive though not differentiated. Varying concentrations of M-CSFM and M-CSFM,M27R were added to the cells, that were grown for five days. Then the cells were fixated and stained using TRAP staining for differentiated osteoclasts. […]

Molecule	number of osteoclasts and nuclei at 5000 nM (BMMs, 5000 nM)	effect on osteoclast differentiation (Example 8, 50 nM, 1 μM and 5 μM with M-CSF and RANKL, 72-96 h)	effect on osteoclast differentiation/formation	number of osteoclasts and number of nuclei (BMMs)	osteoclast formation (BMMs)	numbers of osteoclasts and their nuclei (BMMs, 50, 1000 and 5000 nM without murine M-CSFWT)
M-CSFM: 158 amino acid M-CSF with cysteine at position 31 replaced by serine (SEQ ID NO: 2) (protein) EEVSEYCSHMIGSGHLQSLQRLIDSQMETSSQITFEFVDQEQLKDPVCYLKKAFLLVQDIMEDTMRFRDNTPNAIAIVQLQELSLRLKSCFTKDYEEHDKACVRTFYETPLQLLEKVKNVFNETKNLLDKDWNIFSKNCNNSFAECSSQGHERQSEGS	reduction in both osteoclasts and nuclei number	markedly enhanced osteoclast differentiation	acts as an inducer for osteoclast differentiation	the opposite result	highly accelerated in the two lower concentrations	
M-CSFC31S,M27R: M-CSF double mutant containing both C31S and M27R; monomeric, monospecific c-FMS antagonist (protein) EEVSEYCSHMIGSGHLQSLQRLIDSQRETSSQITFEFVDQEQLKDPVCYLKKAFLLVQDIMEDTMRFRDNTPNAIAIVQLQELSLRLKSCFTKDYEEHDKACVRTFYETPLQLLEKVKNVFNETKNLLDKDWNIFSKNCNNSFAECSSQGHERQSEGS			inhibits osteoclast formation in a dose dependent manner	a decrease in both parameters, in a dose-dependent manner	significantly inhibited, in a dose-dependent manner	
M-CSFWT: wild-type human M-CSF, disulfide-bond-linked homodimer which binds and activates c-FMS (protein) EEVSEYCSHMIGSGHLQSLQRLIDSQMETSCQITFEFVDQEQLKDPVCYLKKAFLLVQDIMEDTMRFRDNTPNAIAIVQLQELSLRLKSCFTKDYEEHDKACVRTFYETPLQLLEKVKNVFNETKNLLDKDWNIFSKNCNNSFAECSSQGHERQSEGS						inhibits both the numbers of osteoclasts and their nuclei, in a dose dependent manner
